Where “and” joins values, the source holds several entries; their conditions need not be identical. Equal entries are not always repeated.
B1: RANKL: cytokine added to small intestinal organoids as ex vivo model of M cell differentiation (protein, UniProt O35235 139-316, looked up)
Tumor necrosis factor ligand …: FSGAPAMMEGSWLDVAQRGKPEAQPFAHLTINAASIPSGSHKVTLSSWYHDRGWAKISNMTLSNGKLRVNQDGFYYLYANICFRHHETSGSVPTDYLQLMVYVVKTSIKIPSSHNLMKGGSTKNWSGNSEFHFYSINVGGFFKLRAGEEISIQVSNPSLLDPDQDATYFGAFKVQDID
B2: rIL-13: recombinant murine IL-13 used to induce mucous metaplasia in cultured airway epithelium (protein, UniProt P20109 19-131, looked up)
Interleukin-13: APGPVPRSVSLPLTLKELIEELSNITQDQTPLCNGSMVWSVDLAAGGFCVALDSLTNISNCNAIYRTQRILHGLCNRKAPTTVSSLPDTKIEVAHFITKLLSYTKQLFRHGPF

Assays:
[1] = system: small intestinal organoids; assay: RANKL-mediated in-vitro differentiation of M cells in intestinal organoids (scRNA-seq); type: cell-based, mouse; settings: 5,434 cells from organoids treated with RANKL for 0, 3 and 6 days
Procedure: Organoid cultures. Following crypt isolation from the whole small intestine^142, the single cell suspension was resuspended in Matrigel® (BD Bioscience) with 1 μM Jagged-1 peptide (Ana-Spec). Roughly 300 crypts embedded in 25 μl of Matrigel® were seeded onto each well of a 24-well plate. Once solidified, the Matrigel® was incubated in 600 μl culture medium (Advanced DMEM/F12, Invitrogen) with streptomycin/penicillin and glutamax and supplemented with EGF (100 ng/mL, Peprotech®), R-Spondin-1 (600 ng/mL, R&D), Noggin (100 ng/mL, Peprotech®), Y-276432 dihydrochloride monohydrate (10 μM, Tocris™)), N-acetyl-1-cysteine (1 μM, Sigma-Aldrich), N2 (1×, Life Technologies), B27 (1×, Life Technologies) and Wnt3A (25 ng/mL, R&D Systems). Fresh media was replaced on day 3, and organoids were passaged by dissociation with TrypLE and resuspended in new Matrigel® on day 6 with a 1:3 split ratio. For selected experiments, organoids were additionally treated with RANKL (100 ng/mL, Biolegends). For T helper cell co-culture experiments, organoids were cultured with Th1, Th2, Th17 or iTregs. Roughly 10,000 T helper cells were added to each well of 500 organoids and were supplemented either to the medium or suspended in the Matrigel®. Treated organoids were dissociated and subjected to scRNA-seq using both methods. […]

[2] = system: cultured epithelia from proximal or distal trachea; assay: rIL-13-induced mucous metaplasia in air-liquid interface cultured tracheal epithelia; type: cell-based, mouse; settings: proximal vs distal tracheal epithelium ALI cultures, rIL-13 vs control, 72 hours
Procedure: Transwell cultures. Cells were cultured and expanded in complete SAGM (small airway epithelial cell growth medium; Lonza, CC-3118) containing TGF-β/BMP4/WNT antagonist cocktails and 5 μM Rock inhibitor Y-27632 (Selleckbio, S1049). To initiate air-liquid interface (ALI) cultures, airway basal stem cells were dissociated from mouse tracheas and seeded onto transwell membranes. After reaching confluence, media was removed from the upper chamber. Mucociliary differentiation was performed with PneumaCult-ALI Medium (StemCell, 05001). Differentiation of airway basal stem cells on an air-liquid interface was followed by directly visualizing beating cilia in real time after 10-14 days. […]
Statistical analysis of proximodistal mucous metaplasia. For the analysis in FIG. 38H,I, the extent of goblet cell hyperplasia was assessed using counts of Muc5ac^+ goblet cells, normalized to counts of GFP^+ ciliated cells. To quantify differences in the count values between the samples in different conditions (n=6, Foxj 1-GFP mice), Applicants fit a negative binomial regression using the ‘glm.nb’ function from the ‘MASS’ package in R. Pairwise comparisons between means for each condition were computed using post hoc tests and p-values were adjusted for multiple comparisons using Tukey's HSD, implemented using the function ‘pairs’ from the ‘emeans’ package in R.

Molecule	differentiated M cells identified by unsupervised clustering [1]	induction of goblet cell differentiation (Muc5ac+ goblet cells normalized to GFP+ ciliated cells) [2]
B1	384 cells and 378 cells	–
B2	–	much higher induction of goblet cell differentiation in the distal epithelium

From patent publication US12590288B2, “Method of treating an inflammatory disease by administering an agent which binds a surface receptor on a tuft cell that induces an ILC class 2 inflammatory response” (The Broad Institute, Inc., priority 2017, dated 2026)
